Test results from patent US20240150805A1, “Glycosylated Opioids” (River Stone Biotech ApS, priority 2021, published 2024).

Experiments:
[1] = In vitro glucosylation of oripavine and nororipavine by purified UGTs; type: biochemical; conditions: for specificity for nororipavine compared to oripavine: 72UGTs, test setup of example 3, FIG. 8; for preference for nororipavine glucosylation compared to oripavine glucosylation: purified UGT, 500 μM substrate, overnight at 30° C., HPLC
Description: Glucosylation samples of a 20 μL total reaction volume for each UGT to be tested were prepared in 96-well microtiter plates as follows:
The microtiter plate was sealed with an adhesive seal, spun shortly and the glucosylation samples were incubated overnight at 30° C. After incubation, glucosylation reaction was terminated by adding 3 volumes (60 μL) of ice-cold 100% methanol the reaction volume and mixing well, followed by centrifugation of the plate at 3000 rpm for 5 min at 4° C. and analysis by HPLC.
The 72UGTs of Table 5 were tested in vitro to using the test setup of example 3 identify those having having specificity toward nororipavine.

[2] = Effect of N-terminal tags on UGT activity in yeast bioconversion of oripavine; type: cell-based, Saccharomyces cerevisiae; conditions: UGT with solubility tag
[3] = Test of additional UGT (SEQ ID NO: 170) in yeast fed with oripavine; type: cell-based, Saccharomyces cerevisiae; conditions: Delft pH 5.5 media, 2 mM oripavine, 3 days, 30 degrees Celsius
Description: An additional UGT (SEQ ID NO: 170) with 62% identity at the protein level to SEQ ID NO: 96 was also tested in a similar manner as above. Briefly, cells were grown overnight in SC-HLU and used to inoculate Delft pH 5.5 media containing 2 mM oripavine. After growth with shaking at 30 degrees Celsius for 3 days, total extracts were obtained by mixing the cultures with an equal volume of 0.2% formic acid and heating at 80 degrees Celsius for 10 minutes. After centrifugation, the supernatant was diluted in 0.1% formic acid for quantification by HPLC as described in the Materials and Methods. UGT SEQ ID NO: 170 was active for glucosylation on both oripavine and nororipavine however it produced 41% of the noropavine-glu relative to SEQ ID NO: 96 and 35% of oripavine-glu relative to SEQ ID NO: 96.

Molecule | preference for nororipavine glucosylation compared to oripavine glucosylation [1] | amounts of glucosylated nororipavine compared to the untagged UGT alone [2] | further results
XP_023875154: subfamily 72 UGT, sequence homolog of Qs72S_1 (protein, Quercus suber) MLSKMEQKPHIALLPSLGMGHLIPLVEFAKQFVLHHDFHITCIIPVLGSPSKAMKAVLQALPTAIDHVFLPPVKLEEEEIKGLKFEVQTILTLTRSLPPLREVLKSTRFSAFVVDPFGIDALDIAKELNISPYIFFPTNAFALSLIFHLPKLDETVSCEYRDLPEPLKLPGCIPIHGRDLLEPVQDRTSELYKMFLRNAKRFRLAEGIIVNTFMELEGSAIKALLDEEAKNLPLYPIGPIQSGSSNQVDKSESDCLRWLDNQPHGSVLFVCFGSGGTLSYDQTNELALGLELSGQKFLWVVRTPNNESADAAYLSDQTLNNNLLAFLPKGFVERTEGQGLAVPSWAPQAQVLSHGSTGGFLTHCGWNSTLESIMQGIPLIAWPLYAEQKMNAPLLAEDLKVALRPKTNKNGLIDREEIAKVVKGLMIGEEGKKVYNRMKDIKMAAEKALSADGSSTKALSELASQWKNHPGF | particularly strong preference for Nororipavine glucosylation |  | specificity for nororipavine compared to oripavine [1]: particularly high specificity
KAF3968553: subfamily 72 UGT, sequence homolog of Qs72S_1 (protein, listed as Castanea mollissima) MEQKPHIALLPSPGMGHLIPLVEFAKLFVLHHDFRITCIIPVLGSPSKAMKAVLQALPTTIDHVFLPPVILEEEEIKGLKFEVQTILTLTRSLPPLRDVLKSTRFSAFVVDPFGIDALDIAKELKISPYIFFPTNAFVLSLMFHLPKLDETVSCEYRDLPEPLKLPGCIPIHGRDLIEPVQDRTSELYKMFLRNVKRFRLAEGIIVNTFMELEGSAIKALLDEEAKNLPLYPIGPIQSGSSNLQVDKSESDCLRWLDNQPRGSVLFVCFGSGGTLSYDQTNELALGLELSGQKFLWVVRTPDNESADAAYLSDQTLDNNPLAFLPKGFVERTEGQGLAVPSWAPQAQVLSHGSTGGFLTHCGWNSTLESIMQGIPLIAWPLYAEQKMNAPLLAEDLKVALRPKTNKNGLIDREEIAKVVKGLMVGEEGKKVHNRMKDIKIAAEKALSADGSSTKTLSELASQWKNHPGF | particularly strong preference for Nororipavine glucosylation |  | specificity for nororipavine compared to oripavine [1]: particularly high specificity
XP_023914549: subfamily 72 UGT, sequence homolog of Qs72S_1 (protein, Quercus suber) MEQKPHIALLPSPGMGHLIPLVEFAKQFVLHHDFRITCIVPVLGSPSKAMKAVLQALPTTIDHVFLPPVKLEEEEIRGLKFEVQTILTLTRSLPPLREVLKSTRFSAFVVDPFGIDALDIAKELNISPYIFFPTNAFALSLIFHLPKLDKTVSCEYRDLPEPLKLPGCIPIHGRDLSEPVQDRTSELYKMFLRNAKRFRLAEGIIVNTFMELERSAIKALLDEEAKNLPLYPIGPIQSGSSNQVDKSESDCLRWLENQPHGSVLFVCFGSGGTLSYDQTNELALGLELSGQKFLWVVRTPNNESADAAYLSDQTLDNNPLAFLPKGFVERTEGQGLAVPSWAPQAQVLSHGSTGGFLTHCGWNSILESVMQGIPLIAWPLYAEQKMNAVLLAEDLKVALRPKTNKNGLIDREEIAKVVKGLMVGEEGKKVRNRMKDIKIAAVKALSADGSSTKALSELASQWKNHPGF | particularly strong preference for Nororipavine glucosylation |  | 
PWA70520: subfamily 71 UGT (protein, listed as Artemisia annua) MTTLELVFIPSPGAGHLPPTVELAKLLLDHDQRLSVTIIIMNLPFEAEQVTETPISTPRLNFIYVANEDSSKDLISPHTFMSAFLEHQKPKLKNIIRDITESDSVRLVGFIVDMFCIAMIDVANEFGVPTYVYFTSSASALGLMFHLQAKCDDEEYDVTDLKDSDLMLSIPSYVKPIPAKLLPSVLFDKQGGSKMFIDLAKKFRESEGIIINSFQELESHGLEFLIKGDPNIPPVFPVGPILNLKNTKNDGKTTDIMAWLDNQPKSSVVFLCFGSMGSFGEKQVKEIAVALERSEHRFLWSLRRPPSKEVMRLPEEYENFKEVLPEGFLECTSNLGKVIGWAPQTSVLSHPSLGGFVSHCGWNSTLESIWFGVPVAAWPLYAEQQINAFQLVMELGIAAEIKIDYKSNIGPGGGSNEMLVKADEIESGIRRLMNDDDMRRNVKEMKHMSRLTVTEGGSSYASIKRFIELVITNT | preference for glucosylation of nororipavine |  | 
SEQ ID NO: 204: UGT fused N-terminally to a solubility tag (protein) MKAQYEDGKQYTTLEKPVAGAPQVLEFFSFFCPHCYQFEEVLHISDNVKKKLPEGVKMTKYHVNFMGGDLGKDLTQAWAVAMALGVEDKVTVPLFEGVQKTQTIRSASDIRDVFINAGIKGEEYDAAWNSFVVKSLVAQQEKAAADVQLRGVPAMFVNGKYQLNPQGMDTSNMDVFVQQYADTVKYLSEKKGGGGSEQKPHIALLPSPGMGHLIPLVEFAKQFVLHHDFHITCIIPVLGSPSKAMKAVLQALPTTIDHVFLPPVILEEEEIKGLKFEVQTILTLTRSLPPLREVLKTTRFSAFVVDPFGIDALDIAKELNISPYIFFPSNAFALSLIFHLPKLDETVSCEYRDLPEPLKLPGCIPIHGRDLIEPVQDRTSELYKMFLRNAKRFRLAEGIIVNTFMELEGSAIKALLDEEAKNLPLYPIGPIQSGSSNLQVDKSVSDCLRWLDNQPHGSVLFVCFGSGGTLSYDQTNELALGLELSGQKFLWVVRTPNNESADAAYLSDQILDNNPLDFLPKGFVERTEGQGLAVPSWAPQAQVLSHGSTGGFLTHCGWNSTLESIMQGIPLIAWPLYAEQKMNAPLLAEDLKVALRPKTNKSGLIDQEEIAKVVKGLMIGEEGKKVYNRMKDIKMAAEKALSADGSSTKALSELASQWKNHPGF |  | higher | 
SEQ ID NO: 212: UGT fused N-terminally to a solubility tag (protein) METHINLKVSDGSSEIFFKIKKTTPLRRLMEAFAKRQGKEMDSLRFLYDGIRIQADQTPEDLDMEDNDIIEAHREQIGGGGGGSEQKPHIALLPSPGMGHLIPLVEFAKQFVLHHDFHITCIIPVLGSPSKAMKAVLQALPTTIDHVFLPPVILEEEEIKGLKFEVQTILTLTRSLPPLREVLKTTRFSAFVVDPFGIDALDIAKELNISPYIFFPSNAFALSLIFHLPKLDETVSCEYRDLPEPLKLPGCIPIHGRDLIEPVQDRTSELYKMFLRNAKRFRLAEGIIVNTFMELEGSAIKALLDEEAKNLPLYPIGPIQSGSSNLQVDKSVSDCLRWLDNQPHGSVLFVCFGSGGTLSYDQTNELALGLELSGQKFLWVVRTPNNESADAAYLSDQILDNNPLDFLPKGFVERTEGQGLAVPSWAPQAQVLSHGSTGGFLTHCGWNSTLESIMQGIPLIAWPLYAEQKMNAPLLAEDLKVALRPKTNKSGLIDQEEIAKVVKGLMIGEEGKKVYNRMKDIKMAAEKALSADGSSTKALSELASQWKNHPGF |  | higher | 
SEQ ID NO: 214: UGT fused N-terminally to a solubility tag (protein) METHINLKVSDGSSEIFFKIKKTTPLRRLMEAFAKRQGKEMDSLRFLYDGIRIQADQTPEDLDMEDNDIIEAHREQIGGGGGGSGGGGSGGGGSEQKPHIALLPSPGMGHLIPLVEFAKQFVLHHDFHITCIIPVLGSPSKAMKAVLQALPTTIDHVFLPPVILEEEEIKGLKFEVQTILTLTRSLPPLREVLKTTRFSAFVVDPFGIDALDIAKELNISPYIFFPSNAFALSLIFHLPKLDETVSCEYRDLPEPLKLPGCIPIHGRDLIEPVQDRTSELYKMFLRNAKRFRLAEGIIVNTFMELEGSAIKALLDEEAKNLPLYPIGPIQSGSSNLQVDKSVSDCLRWLDNQPHGSVLFVCFGSGGTLSYDQTNELALGLELSGQKFLWVVRTPNNESADAAYLSDQILDNNPLDFLPKGFVERTEGQGLAVPSWAPQAQVLSHGSTGGFLTHCGWNSTLESIMQGIPLIAWPLYAEQKMNAPLLAEDLKVALRPKTNKSGLIDQEEIAKVVKGLMIGEEGKKVYNRMKDIKMAAEKALSADGSSTKALSELASQWKNHPGF |  | higher | 
SEQ ID NO: 170: additional UGT with 62% identity at the protein level to SEQ ID NO: 96 (protein) MEQTPHIAIMPTQGMGHLIPLVEFAKRLVLTHNFSATFLIPTDPGRLPAAQKSFLDSLPAGINYVLLPPVNFDDLPDDVGSETRISLAVVRSLPSLRDALKSLVSGFRVVALVVDLFGTDAFDVAAEFNVSPYIFYPSTAMALSLFLHLPKLDESVSCEYRDLPEPVQIPGCIPVHGKDLLDPVQDRKNGAYKWLLHQVKRYRLAEGIMVNSFKELEGGAIKALQEEEPGKPPVYPIGPLVQMDGADEKSECLRWLDDQPRGSVLFVSFGSGGTLSYDQLNELALGLEMSEQRFLWVVRSPNNKSANATYFSVNSQNDPFAFLPKGFLERTKGYGLVVPSWAPQVRVLSHGSTGGFLTHCGWNSTLESVVNGVPLIAWPFYAEQKMNAVMLTEDLKVALRLRIGENGIIGRAEIAKVVKGLMEGEEGKQIRSRMIDLKDAAARALGEDGDSTKSLAELAQKWKNKIIS |  |  | noropavine-glu produced relative to SEQ ID NO: 96 [3]: 41%; oripavine-glu produced relative to SEQ ID NO: 96 [3]: 35%
